From patent US20250163167A1 (SYNTHEKINE, published 2025)

T1: human IL-10 receptor (hIL-10R alpha and beta chains) on HEK-Blue IL-10 reporter cells (human, UniProt Q13651 22-578; Q08334 20-325)
T1 sequence 1: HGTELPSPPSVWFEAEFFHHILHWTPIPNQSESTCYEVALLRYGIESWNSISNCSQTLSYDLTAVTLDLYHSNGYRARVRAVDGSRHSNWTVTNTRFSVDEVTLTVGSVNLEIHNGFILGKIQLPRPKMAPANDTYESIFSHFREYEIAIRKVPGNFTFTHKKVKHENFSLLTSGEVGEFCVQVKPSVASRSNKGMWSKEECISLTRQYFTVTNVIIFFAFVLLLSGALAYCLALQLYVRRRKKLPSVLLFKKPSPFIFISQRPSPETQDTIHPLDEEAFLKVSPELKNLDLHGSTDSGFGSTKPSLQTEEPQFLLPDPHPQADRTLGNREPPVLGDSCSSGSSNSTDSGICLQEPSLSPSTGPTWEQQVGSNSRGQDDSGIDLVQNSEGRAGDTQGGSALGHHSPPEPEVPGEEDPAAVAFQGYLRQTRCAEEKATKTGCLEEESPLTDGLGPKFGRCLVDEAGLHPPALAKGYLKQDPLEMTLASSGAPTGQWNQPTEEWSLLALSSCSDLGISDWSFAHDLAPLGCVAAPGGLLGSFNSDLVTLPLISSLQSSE
T1 sequence 2: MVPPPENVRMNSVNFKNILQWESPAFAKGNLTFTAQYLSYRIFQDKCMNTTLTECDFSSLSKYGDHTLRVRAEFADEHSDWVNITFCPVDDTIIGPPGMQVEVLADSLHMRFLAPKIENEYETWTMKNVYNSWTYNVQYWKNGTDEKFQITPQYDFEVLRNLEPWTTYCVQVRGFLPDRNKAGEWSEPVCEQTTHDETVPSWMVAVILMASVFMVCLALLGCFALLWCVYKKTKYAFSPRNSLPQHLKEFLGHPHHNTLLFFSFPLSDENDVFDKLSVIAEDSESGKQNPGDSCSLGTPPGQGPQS


Biological target: T1, human IL-10 receptor (hIL-10R alpha and …)
Test: cell-based or functional assay

Row | Binder | Abs 630 (25 nM) | Abs 630 (100 nM)
1 | IL10R binding molecule of SEQ ID NO: 333 (bispecific antibody) QVQLQESGGGSVEAGGSLRLSCAASGYTHSSYCMGWFRQAPGKEREGVAAIDVDGSTTYADSVKGRFTISKDNAKNTLYLQMNSLKPEDTGMYYCAAEFADCSSNYFLPPGAVRYWGQGTQVTVSSGGGSQVQLQESGGGSVQAGGSLRLSCAASRYLYSIDYMAWFRQSPGKEREPVAVIYTASGATFYPDSVKGRFTISQDNAKMTVYLQMNSLKSEDTAMYYCAAVRKTDSYLFDAQSFTYWGQGTQVTVSSASHHHHHH | 0.49 Abs 630 | 0.54 Abs 630
2 | IL10R binding molecule of SEQ ID NO: 262 (bispecific antibody) QVQLQESGGGSVQAGGSLRLSCAASRYLYSIDYMAWFRQSPGKEREPVAVIYTASGATFYPDSVKGRFTISQDNAKMTVYLQMNSLKSEDTAMYYCAAVRKTDSYLFDAQSFTYWGQGTQVTVSSGGGSQVQLQESGGGSVQTGGSLRLSCAASGYTYLRGCMGWFRQAPGKEREGVAVMDVVGDRRSYIDSVKGRFTISRDNAANSVYLQMDNLKPEDTAMYYCTAGPNCVGWRSGLDYWGQGTQVTVSSASHHHHHH | 1.38 Abs 630 | 0.4 Abs 630
3 | IL10R binding molecule of SEQ ID NO: 263 (bispecific antibody) QVQLQESGGGSVQAGGSLRLSCAASRFTYSSYCMGWFRQAPGKEREGVASIDSDGSTSYTDSVKGRFTISKDNAKNTLYLQMNSLKPEDTAMYYCALDLMSTVVPGFCGFLLSAGMDYWGKGTQVTVSSGGGSQVQLQESGGGSVQAGGSLRLSCAASGYTYSSGCMGWFRQAPGKEREAVAAINSDGSTSYADSVKGRFTISKDNAKNTLYLQMNSLKPEDTAMYYCAAEPYCSGGYPRWSVAEFGYWGQGTQVTVSSASHHHHHH | 1.77 Abs 630 | 1.02 Abs 630
4 | IL10R binding molecule of SEQ ID NO: 330 (bispecific antibody) QVQLQESGGGSVQAGGSLRLSCTVSRYTASVNYMGWFRQAPGKEREGVATIFTGAGTTYYANSVKGRFTISRDNAKNTAYLQMNSLKPEDTAIYYCAVDFRGGLLYRPAYEYTYRGQGTQVTVSSGGGSQVQLQESGGGSVQAGGSLRLSCTVSGYTYSSNCMGWFRQAPGKEREGVATIYTGGGNTYYADSVKGRFTISQDNAKNTVYLQMNNLKPEDTAMYYCAAEPLSRVYGGSCPTPTFDYWGQGTQVTVSSASHHHHHH | 0.45 Abs 630 | 0.36 Abs 630
5 | IL10R binding molecule of SEQ ID NO: 329 (bispecific antibody) QVQLQESGGGSVQAGGSLRLSCTVSRYTASVNYMGWFRQAPGKEREGVATIFTGAGTTYYANSVKGRFTISRDNAKNTAYLQMNSLKPEDTAIYYCAVDFRGGLLYRPAYEYTYRGQGTQVTVSSGGGSQVQLQESGGGSVQAGGSLRLSCAVSGYAYSTYCMGWFRQAPGKEREGVAAIDSGGSTSYADSVKGRFTISKDNAKNTLYLRMNSLKPEDTAMYYCAAVPPPPDGGSCLFLGPEIKVSKADFRYWGQGTQVTVSSASHHHHHH | 0.48 Abs 630 | 0.39 Abs 630
6 | IL10R binding molecule of SEQ ID NO: 335 (bispecific antibody) QVQLQESGGGSVEAGGSLRLSCAASGYTHSSYCMGWFRQAPGKEREGVAAIDVDGSTTYADSVKGRFTISKDNAKNTLYLQMNSLKPEDTGMYYCAAEFADCSSNYFLPPGAVRYWGQGTQVTVSSGGGSQVQLQESGGGSVQAGGSLRLSCAASGYTYSMYCMGWFRQAPGKEREGVAQINSDGSTSYADSVKGRFTISKDNAKNTLYLQMNSLKPEDTAMYYCAADSRVYGGSWYERLCGPYTYEYNYWGQGTQVTVSSASHHHHHH | 0.5 Abs 630 | 0.44 Abs 630
7 | IL10R binding molecule of SEQ ID NO: 334 (bispecific antibody) QVQLQESGGGSVEAGGSLRLSCAASGYTHSSYCMGWFRQAPGKEREGVAAIDVDGSTTYADSVKGRFTISKDNAKNTLYLQMNSLKPEDTGMYYCAAEFADCSSNYFLPPGAVRYWGQGTQVTVSSGGGSQVQLQESGGGSVQAGGSLRLSCAASRFTYSSYCMGWFRQAPGKEREGVASIDSDGSTSYTDSVKGRFTISKDNAKNTLYLQMNSLKPEDTAMYYCALDLMSTVVPGFCGFLLSAGMDYWGKGTQVTVSSASHHHHHH | 1.43 Abs 630 | 1.14 Abs 630
8 | IL10R binding molecule of SEQ ID NO: 331 (bispecific antibody) QVQLQESGGGSVQAGGSLRLSCTVSRYTASVNYMGWFRQAPGKEREGVATIFTGAGTTYYANSVKGRFTISRDNAKNTAYLQMNSLKPEDTAIYYCAVDFRGGLLYRPAYEYTYRGQGTQVTVSSGGGSQVQLQESGGGSVQAGGSLRLSCGASGYTYSSYCMGWFRQVPGKEREGVAVIDSDGSTSYADSVKGRFTISKDNGKNTLYLQMNSLKPEDTAMYYCAADLGHYRPPCGVLYLGMDYWGKGTQVTVSSASHHHHHH | 0.5 Abs 630 | 0.41 Abs 630
9 | IL10R binding molecule of SEQ ID NO: 332 (bispecific antibody) QVQLQESGGGSVQAGGSLRLSCTVSRYTASVNYMGWFRQAPGKEREGVATIFTGAGTTYYANSVKGRFTISRDNAKNTAYLQMNSLKPEDTAIYYCAVDFRGGLLYRPAYEYTYRGQGTQVTVSSGGGSQVQLQESGGGSVQAGGSLRLSCAASGYSNCSYDMTWYRQAPGKEREFVSAIHSDGSTRYADSVKGRFFISQDNAKNTVYLQMNSLKPEDTAMYYCKTDPLHCRAHGGSWYSVRANYWGQGTQVTVSSASHHHHHH | 0.47 Abs 630 | 0.36 Abs 630

The next lines start with the values.

Row | Abs 630 (25 nM) | Abs 630 (100 nM) | Binder
10 | 0.49 Abs 630 | 0.42 Abs 630 | IL10R binding molecule of SEQ ID NO: 339 (bispecific antibody) QVQLQESGGGSVEAGGSLRLSCAASGYTHSSYCMGWFRQAPGKEREGVAAIDVDGSTTYADSVKGRFTISKDNAKNTLYLQMNSLKPEDTGMYYCAAEFADCSSNYFLPPGAVRYWGQGTQVTVSSGGGSQVQLQESGGGSVQAGGSLRLSCAASGYSNCSYDMTWYRQAPGKEREFVSAIHSDGSTRYADSVKGRFFISQDNAKNTVYLQMNSLKPEDTAMYYCKTDPLHCRAHGGSWYSVRANYWGQGTQVTVSSASHHHHHH
11 | 0.51 Abs 630 | 0.41 Abs 630 | IL10R binding molecule of SEQ ID NO: 338 (bispecific antibody) QVQLQESGGGSVEAGGSLRLSCAASGYTHSSYCMGWFRQAPGKEREGVAAIDVDGSTTYADSVKGRFTISKDNAKNTLYLQMNSLKPEDTGMYYCAAEFADCSSNYFLPPGAVRYWGQGTQVTVSSGGGSQVQLQESGGGSVQAGGSLRLSCGASGYTYSSYCMGWFRQVPGKEREGVAVIDSDGSTSYADSVKGRFTISKDNGKNTLYLQMNSLKPEDTAMYYCAADLGHYRPPCGVLYLGMDYWGKGTQVTVSSASHHHHHH
12 | 0.49 Abs 630 | 0.4 Abs 630 | IL10R binding molecule of SEQ ID NO: 337 (bispecific antibody) QVQLQESGGGSVEAGGSLRLSCAASGYTHSSYCMGWFRQAPGKEREGVAAIDVDGSTTYADSVKGRFTISKDNAKNTLYLQMNSLKPEDTGMYYCAAEFADCSSNYFLPPGAVRYWGQGTQVTVSSGGGSQVQLQESGGGSVQAGGSLRLSCTVSGYTYSSNCMGWFRQAPGKEREGVATIYTGGGNTYYADSVKGRFTISQDNAKNTVYLQMNNLKPEDTAMYYCAAEPLSRVYGGSCPTPTFDYWGQGTQVTVSSASHHHHHH
13 | 0.46 Abs 630 | 0.51 Abs 630 | IL10R binding molecule of SEQ ID NO: 340 (bispecific antibody) QVQLQESGGGSVQAGGSLRLSCAASGYSYSSYCMGWFRQAPGKEREGVATIDSDGMTRYADSVKGRFTISKDNAKNTLYLQMNSLKPEDTAMYYCAAPLYDCDSGAVGRNPPYWGQGTQVTVSSGGGSQVQLQESGGGSVQAGGSLRLSCAASRYLYSIDYMAWFRQSPGKEREPVAVIYTASGATFYPDSVKGRFTISQDNAKMTVYLQMNSLKSEDTAMYYCAAVRKTDSYLFDAQSFTYWGQGTQVTVSSASHHHHHH
14 | 0.45 Abs 630 | 0.36 Abs 630 | IL10R binding molecule of SEQ ID NO: 342 (bispecific antibody) QVQLQESGGGSVQAGGSLRLSCAASGYSYSSYCMGWFRQAPGKEREGVATIDSDGMTRYADSVKGRFTISKDNAKNTLYLQMNSLKPEDTAMYYCAAPLYDCDSGAVGRNPPYWGQGTQVTVSSGGGSQVQLQESGGGSVQAGGSLRLSCAASGYTYSMYCMGWFRQAPGKEREGVAQINSDGSTSYADSVKGRFTISKDNAKNTLYLQMNSLKPEDTAMYYCAADSRVYGGSWYERLCGPYTYEYNYWGQGTQVTVSSASHHHHHH
15 | 0.6 Abs 630 | 0.48 Abs 630 | IL10R binding molecule of SEQ ID NO: 341 (bispecific antibody) QVQLQESGGGSVQAGGSLRLSCAASGYSYSSYCMGWFRQAPGKEREGVATIDSDGMTRYADSVKGRFTISKDNAKNTLYLQMNSLKPEDTAMYYCAAPLYDCDSGAVGRNPPYWGQGTQVTVSSGGGSQVQLQESGGGSVQAGGSLRLSCAASRFTYSSYCMGWFRQAPGKEREGVASIDSDGSTSYTDSVKGRFTISKDNAKNTLYLQMNSLKPEDTAMYYCALDLMSTVVPGFCGFLLSAGMDYWGKGTQVTVSSASHHHHHH
16 | 0.54 Abs 630 | 0.45 Abs 630 | IL10R binding molecule of SEQ ID NO: 336 (bispecific antibody) QVQLQESGGGSVEAGGSLRLSCAASGYTHSSYCMGWFRQAPGKEREGVAAIDVDGSTTYADSVKGRFTISKDNAKNTLYLQMNSLKPEDTGMYYCAAEFADCSSNYFLPPGAVRYWGQGTQVTVSSGGGSQVQLQESGGGSVQAGGSLRLSCAVSGYAYSTYCMGWFRQAPGKEREGVAAIDSGGSTSYADSVKGRFTISKDNAKNTLYLRMNSLKPEDTAMYYCAAVPPPPDGGSCLFLGPEIKVSKADFRYWGQGTQVTVSSASHHHHHH
